Tests used:
[1] = Thermally-induced reversible phase transition (turbidity OD350 vs temperature); assay type: physicochemical
Source text: Characterization of thermally-induced, reversible, inverse phase transition of iTEPs and the iTEPB-iTEPA-pOVA fusion. The phase transitions of iTEP or iTEP fusions were characterized by turbidity changes of sample solutions as a function of temperature. Specifically, the optical density at 350 nm (OD350) of a sample solution was monitored using an UV-visible spectrophotometer equipped with a multi-cell thermoelectric temperature controller (Cary 300, Varian Instruments, Walnut Creek, CA) while the solution was heated from 20° C. to 80° C. and then cooled to 20° C. at a rate of 1° C./min. The maximum first derivative of the turbidity curve of a sample was identified. The transition temperature (Tt) of the sample is the temperature that corresponds to the maximum derivative.

[2] = Quantification of free sulfhydryl groups (Ellman's method); assay type: physicochemical
Description: Quantification of free sulfhydryl groups of RED-NP after reducing treatments. Twenty mg of RED-NP were dissolved in 2 mL of H2O and treated with 1 mM of GSH for 16 h. The solution was then dialyzed (membrane cutoff MW: 3,500 Dalton) in deionized water at 4° C. for 24 h. Then the sample was concentrated to 0.5 mL using Amicon centrifugal filter devices (Millipore, USA). Numbers of free sulfhydryl groups of RED-NP were determined by Ellman's method. Briefly, 250 μL of sample and 50 μL of Ellman's reagent (Thermo Scientific, USA) were added to 2.5 mL of reaction buffer (0.1 M sodium phosphate, pH 8.0, 1 mM EDTA). After 15 min of incubation at room temperature, the OD412 was measured. To generate a standard curve of free sulfhydryl groups, OD412 of serial dilutions of cysteine hydrochloride monohydrate was measured. The serial OD412 values were plotted against concentrations of cysteine hydrochloride monohydrate to generate a standard curve. Concentrations of free sulfhydryl groups in the RED-NP samples were determined from the standard curve and used to calculate numbers of free sulfhydryl groups per iTEP-vaccine fusion molecules.

DC2.4 cells = assay: Cellular uptake of iTEP-vaccine fusions by DCs; assay type: cell-based, murine
Description: Fluorescent labeling of iTEP-vaccine fusions. For the flow cytometry study, the fusions were labeled with the amine-reactive coumarin, 7-diethylaminocoumarin-3-carboxylic acid, through succinimidyl ester to form blue-fluorescent bioconjugates. For the microscopy-based cellular uptake study and the cellular degradation study, the fusions were labeled with Alexa Fluo 488 5-SDP ester (Alexa-488) to form green-fluorescent bioconjugates. The reactions were performed based on the manufacturer's instructions (Molecular Probes by Life Technologies). Briefly, 10 mg of iTEPs were reacted with 1 mg of coumarin or 0.2 mg of Alexa-488 in 0.1 M sodium bicarbonate buffer, pH 8.3 at a final volume of 1 mL. The reaction was carried out with continuous stirring in the dark and at room temperature for 1.5 h. The protein-dye conjugates were purified using Amicon Ultra1-5 (10k) centrifugal filters (Millipore). The coumarin conjugate was measured for their absorbances of at 205 nm (A205) and 433 nm (A433, λmax for coumarin); the Alexa-488 conjugate was measured at 205 nm and 495 nm (A495, λmax for Alexa-488). The iTEP-vaccine fusion concentrations and the degree of labeling (DOL) were calculated based on these equations: […]
Cellular uptake of iTEP-vaccine fusions. […] The fluorescence of the cells was measured by flow cytometry (collecting 5×10^4 events per sample). […]

[3] = system: endothelial cells (EA.hy926 and bEnd.3) and fibroblasts (3T3); assay: Cellular uptake of iTEP-vaccine fusions by control cells; assay type: cell-based; conditions: 5 μM coumarin-labeled fusions, 4 h
Description: Cellular uptake of iTEP-vaccine fusions. DC2.4, EA.hy926, bEnd.3, 3T3 cells were plated at 1.5×10^5/500 μL/well in 24-well plates. When the cells attached to the bottom of the plate (4 h or overnight), the media was replaced with 500 μL of fresh media with or without 5 μM of coumarine labeled iTEP-vaccine fusions. After being cultured for 4 h at 37° C. in 5% CO2, the cells were collected and washed twice with PBS. The fluorescence of the cells was measured by flow cytometry (collecting 5×10^4 events per sample).

B1: G(GAGVPG)70G(GVLPGVG)28G(ESIINFEKLT)2GG (protein)
chain: GGAGVPGGAGVPGGAGVPGGAGVPGGAGVPGGAGVPGGAGVPGGAGVPGGAGVPGGAGVPGGAGVPGGAGVPGGAGVPGGAGVPGGAGVPGGAGVPGGAGVPGGAGVPGGAGVPGGAGVPGGAGVPGGAGVPGGAGVPGGAGVPGGAGVPGGAGVPGGAGVPGGAGVPGGAGVPGGAGVPGGAGVPGGAGVPGGAGVPGGAGVPGGAGVPGGAGVPGGAGVPGGAGVPGGAGVPGGAGVPGGAGVPGGAGVPGGAGVPGGAGVPGGAGVPGGAGVPGGAGVPGGAGVPGGAGVPGGAGVPGGAGVPGGAGVPGGAGVPGGAGVPGGAGVPGGAGVPGGAGVPGGAGVPGGAGVPGGAGVPGGAGVPGGAGVPGGAGVPGGAGVPGGAGVPGGAGVPGGAGVPGGAGVPGGAGVPGGAGVPGGESIINFEKLTESIINFEKLTGG
[1]
  temperature of sharp increase of turbidity (formation of aggregates): 70 °C
[1]; 25 μM in H2O
  Tt (cooling): 73.70 ± 0.23 °C
  Tt (heating): 75.40 ± 0.14 °C

B2: RED-NP: reductive-environment dependable NP, disulfide stabilized fusion iTEPB70-iTEPA28-(G8C)4-pOVA (SEQ ID NO: 61) (protein)
chain: GGAGVPGGAGVPGGAGVPGGAGVPGGAGVPGGAGVPGGAGVPGGAGVPGGAGVPGGAGVPGGAGVPGGAGVPGGAGVPGGAGVPGGAGVPGGAGVPGGAGVPGGAGVPGGAGVPGGAGVPGGAGVPGGAGVPGGAGVPGGAGVPGGAGVPGGAGVPGGAGVPGGAGVPGGAGVPGGAGVPGGAGVPGGAGVPGGAGVPGGAGVPGGAGVPGGAGVPGGAGVPGGAGVPGGAGVPGGAGVPGGAGVPGGAGVPGGAGVPGGAGVPGGAGVPGGAGVPGGAGVPGGAGVPGGAGVPGGAGVPGGAGVPGGAGVPGGAGVPGGAGVPGGAGVPGGAGVPGGAGVPGGAGVPGGAGVPGGAGVPGGAGVPGGAGVPGGAGVPGGAGVPGGAGVPGGAGVPGGAGVPGGAGVPGGAGVPGGAGVPGGGVLPGVGGVLPGVGGVLPGVGGVLPGVGGVLPGVGGVLPGVGGVLPGVGGVLPGVGGVLPGVGGVLPGVGGVLPGVGGVLPGVGGVLPGVGGVLPGVGGVLPGVGGVLPGVGGVLPGVGGVLPGVGGVLPGVGGVLPGVGGVLPGVGGVLPGVGGVLPGVGGVLPGVGGVLPGVGGVLPGVGGVLPGVGGVLPGVGGCGCGCGCGESIINFEKLTESIINFEKLTGG
[2]; after the treatment of 1 mM of GSH
  free sulfhydryl groups, on average: two
[2]; before GSH treatment
  free sulfhydryl groups, on average: zero
DC2.4 cells; fluorescence microscopy and flow cytometry
  internalization to DCs: as efficient as the ST-NP and more robust than the MS-NP

B3: ST-NP: stable NP of the fusion iTEPB70-iTEPA56-pOVA (SEQ ID NO: 60) (protein)
chain: GGAGVPGGAGVPGGAGVPGGAGVPGGAGVPGGAGVPGGAGVPGGAGVPGGAGVPGGAGVPGGAGVPGGAGVPGGAGVPGGAGVPGGAGVPGGAGVPGGAGVPGGAGVPGGAGVPGGAGVPGGAGVPGGAGVPGGAGVPGGAGVPGGAGVPGGAGVPGGAGVPGGAGVPGGAGVPGGAGVPGGAGVPGGAGVPGGAGVPGGAGVPGGAGVPGGAGVPGGAGVPGGAGVPGGAGVPGGAGVPGGAGVPGGAGVPGGAGVPGGAGVPGGAGVPGGAGVPGGAGVPGGAGVPGGAGVPGGAGVPGGAGVPGGAGVPGGAGVPGGAGVPGGAGVPGGAGVPGGAGVPGGAGVPGGAGVPGGAGVPGGAGVPGGAGVPGGAGVPGGAGVPGGAGVPGGAGVPGGAGVPGGAGVPGGAGVPGGAGVPGGGVLPGVGGVLPGVGGVLPGVGGVLPGVGGVLPGVGGVLPGVGGVLPGVGGVLPGVGGVLPGVGGVLPGVGGVLPGVGGVLPGVGGVLPGVGGVLPGVGGVLPGVGGVLPGVGGVLPGVGGVLPGVGGVLPGVGGVLPGVGGVLPGVGGVLPGVGGVLPGVGGVLPGVGGVLPGVGGVLPGVGGVLPGVGGVLPGVGGGGGGGGGCGGGGGGGGCGGGGGGGGCGGGGGGGGCGESIINFEKLTESIINFEKLTGG
[3]
  uptake by endothelial cells and fibroblasts relative to the MS-NP: either the same amount or less
DC2.4 cells; 5 μM coumarin-labeled fusions, 4 h
  uptake by DCs, times more than the MS-NP: two
